Results from the supplement of paper PMC11246515.
± gives the standard deviation of the averaged measurements.

Assay: total protein half-life in vivo (active degradation + dilution); higher = more stable protein
[1] = E. coli NCM3722 delta-clpP delta-lon delta-hslV, growth: N-lim chemostat, doubling time 6 h
[2] = E. coli NCM3722 delta-clpP, growth: N-lim chemostat, doubling time 6 h
[3] = E. coli NCM3722 delta-hslV, growth: N-lim chemostat, doubling time 6 h
[4] = E. coli NCM3722 delta-lon, growth: N-lim chemostat, doubling time 6 h
[5] = E. coli NCM3722 delta-smpB, growth: N-lim chemostat, doubling time 6 h
[6] = wild type E. coli NCM3722, growth: C-lim chemostat, doubling time 3 h
[7] = wild type E. coli NCM3722, growth: C-lim chemostat, doubling time 6 h
[8] = wild type E. coli NCM3722, growth: C-lim chemostat, doubling time 12 h
[9] = wild type E. coli NCM3722, growth: N-lim chemostat, doubling time 6 h
[10] = wild type E. coli NCM3722, growth: N-lim chemostat, doubling time 12 h
[11] = wild type E. coli NCM3722, growth: P-lim chemostat, doubling time 6 h
[12] = wild type E. coli NCM3722, growth: P-lim chemostat, doubling time 12 h

Sequence | total protein half-life in vivo [1] | total protein half-life in vivo [2] | total protein half-life in vivo [3] | total protein half-life in vivo [4] | total protein half-life in vivo [5] | total protein half-life in vivo [6] | total protein half-life in vivo [7] | total protein half-life in vivo [8] | total protein half-life in vivo [9] | total protein half-life in vivo [10] | total protein half-life in vivo [11] | total protein half-life in vivo [12]
MTQENEIKRPIQDLEHEPIKPLDNSEKGSKVSQALETVTTTAEKVQRQPVIAHLIRATERFNDRLGNQFGAAITYFSFLSMIPILMVSFAAGGFVLASHPMLLQDIFDKILQNISDPTLAATLKNTINTAVQQRTTVGLVGLAVALYSGINWMGNLREAIRAQSRDVWERSPQDQEKFWVKYLRDFISLIGLLIALIVTLSITSVAGSAQQMIISALHLNSIEWLKPTWRLIGLAISIFANYLLFFWIFWRLPRHRPRKKALIRGTFLAAIGFEVIKIVMTYTLPSLMKSPSGAAFGSVLGLMAFFYFFARLTLFCAAWIATAEYKDDPRMPGKTQP | 4.96 ± 0.058 h | 4.8 ± 0.18 h | 3.99 ± 0.46 h | 3.56 ± 0.56 h | 4.74 ± 0.46 h | 2.41 ± 0.45 h | 4.07 ± 0.12 h | 7.18 ± 1.4 h | 4.21 ± 0.15 h | 6.7 ± 0.46 h | 4.02 ± 0.11 h | 6.92 ± 0.24 h
MTQFTQNTAMPSSLWQYWRGLSGWNFYFLVKFGLLWAGYLNFHPLLNLVFAAFLLMPLPRYSLHRLRHWIALPIGFALFWHDTWLPGPESIMSQGSQVAGFSTDYLIDLVTRFINWQMIGAIFVLLVAWLFLSQWIRITVFVVAILLWLNVLTLAGPSFSLWPAGQPTTTVTTTGGNAAATVAATGGAPVVGDMPAQTAPPTTANLNAWLNNFYNAEAKRKSTFPSSLPADAQPFELLVINICSLSWSDIEAAGLMSHPLWSHFDIEFKNFNSATSYSGPAAIRLLRASCGQTSHTNLYQPANNDCYLFDNLSKLGFTQHLMMGHNGQFGGFLKEVRENGGMQSELMDQTNLPVILLGFDGSPVYDDTAVLNRWLDVTEKDKNSRSATFYNTLPLHDGNHYPGVSKTADYKARAQKFFDELDAFFTELEKSGRKVMVVVVPEHGGALKGDRMQVSGLRDIPSPSITDVPVGVKFFGMKAPHQGAPIVIEQPSSFLAISDLVVRVLDGKIFTEDNVDWKKLTSGLPQTAPVSENSNAVVIQYQDKPYVRLNGGDWVPYPQ | 3.61 ± 0.11 h | 4.03 ± 0.34 h | 2.98 ± 1.2 h | 3.68 ± 0.32 h | 3.66 ± 0.32 h | 2.602 ± 0.019 h | 4.28 ± 0.59 h | 8.3 ± 0.53 h | 4.05 ± 0.25 h | 6.43 ± 1.3 h | 3.91 ± 0.42 h | 6.54 ± 0.083 h
MTQLAIGKPAPLGAHYDGQGVNFTLFSAHAERVELCVFDANGQEHRYDLPGHSGDIWHGYLPDARPGLRYGYRVHGPWQPAEGHRFNPAKLLIDPCARQIDGEFKDNPLLHAGHNEPDYRDNAAIAPKCVVVVDHYDWEDDAPPRTPWGSTIIYEAHVKGLTYLHPEIPVEIRGTYKALGHPVMINYLKQLGITALELLPVAQFASEPRLQRMGLSNYWGYNPVAMFALHPAYACSPETALDEFRDAIKALHKAGIEVILDIVLNHSAELDLDGPLFSLRGIDNRSYYWIREDGDYHNWTGCGNTLNLSHPAVVDYASACLRYWVETCHVDGFRFDLAAVMGRTPEFRQDAPLFTAIQNCPVLSQVKLIAEPWDIAPGGYQVGNFPPLFAEWNDHFRDAARRFWLHYDLPLGAFAGRFAASSDVFKRNGRLPSAAINLVTAHDGFTLRDCVCFNHKHNEANGEENRDGTNNNYSNNHGKEGLGGSLDLVERRRDSIHALLTTLLLSQGTPMLLAGDEHGHSQHGNNNAYCQDNQLTWLDWSQASSGLTAFTAALIHLRKRIPALVENRWWEEGDGNVRWLNRYAQPLSTDEWQNGPKQLQILLSDRFLIAINATLEVTEIVLPAGEWHAIPPFAGEDNPVITAVWQGPAHGLCVFQR | 5.66 ± 0.38 h | 5.35 ± 0.093 h | 5.23 ± 0.074 h | 6.01 ± 0.45 h | 5.62 ± 0.72 h | 3.31 ± 0.7 h | 5.47 ± 0.28 h | 10.5 ± 0.48 h | 5.46 ± 0.36 h | 10.2 ± 0.7 h | 6.42 ± 0.68 h | 11.6 ± 1.6 h
MTQPLVGKQILIVEDEQVFRSLLDSWFSSLGATTVLAADGVDALELLGGFTPDLMICDIAMPRMNGLKLLEHIRNRGDQTPVLVISATENMADIAKALRLGVEDVLLKPVKDLNRLREMVFACLYPSMFNSRVEEEERLFRDWDAMVDNPAAAAKLLQELQPPVQQVISHCRVNYRQLVAADKPGLVLDIAALSENDLAFYCLDVTRAGHNGVLAALLLRALFNGLLQEQLAHQNQRLPELGALLKQVNHLLRQANLPGQFPLLVGYYHRELKNLILVSAGLNATLNTGEHQVQISNGVPLGTLGNAYLNQLSQRCDAWQCQIWGTGGRLRLMLSAE [P0AEV1] | 3.97 ± 0.57 h | 3.09 ± 0.13 h | 3.094 ± 0.028 h | 3.57 ± 0.32 h | 2.961 ± 0.028 h | 2.72 ± 0.33 h | 4.34 ± 0.48 h | 8.52 ± 0.76 h | 3.39 ± 0.12 h | 5.16 ± 0.3 h | 5.53 ± 0.37 h | 10.1 ± 0.53 h
